From patent publication US20160060356A1 (Hoffmann-La Roche, published 2016)
Residue numbers refer to the chain shown, from its start. One block for each binder: values may come before it.

How the values were obtained:
[1] = target: T1, murine Fibroblast Activation Protein (FAP) on stably transfected HEK293 cells (mouse, UniProt P97321 1-761); experiment: FACS on HEK293 cells stably transfected with murine FAP
T1 construct: whole, on cells; also called murine FAP

[2] = target: T2, HER2 on stably transfected HEK293 cells (UniProt P04626 23-1255, limits assumed); experiment: FACS on HEK293 cells stably expressing HER2, PE goat anti-human IgG Fc gamma detection
T2 construct: whole, on cells

[3] = target: T3, human Fibroblast Activation Protein (FAP) ectodomain with C-terminal poly-lysine and 6xHis-tag (human, UniProt Q12884 27-760); experiment: SPR (Biacore T100), His-tagged FAP captured by anti-His antibody, IgG as analyte (avidity)
T3 construct: Recombinant soluble antigen used in selections, ELISA and SPR; also called hu FAP; human FAP
Experimental: (§1) For immobilization carboxymethylated dextran biosensor chips (CMS, GE Healthcare) were activated with N-ethyl-N′-(3-dimethylaminopropyl)-carbodiimide hydrochloride (EDC) and N-hydroxysuccinimide (NHS) according to the supplier's instructions. The Penta His antibody was diluted with 10 mM sodium acetate, pH 5, to 40 μg/ml before injection at a flow rate of 10 μl/minute to achieve approximately 9000 response units (RU) of coupled protein. Following the injection of the ligand, 1 M ethanolamine was injected to block unreacted groups.
(§2) For kinetics measurements, human, mouse or Cynomolgus FAP extracellular domain was injected at 10 μl/min at 10 nM for 20 s (for Fab fragments) or at 20 nM for 25 s (for IgG) and was captured via its His tag by the immobilized penta His antibody. […] The following parameters were applied: Association time 180 s, dissociation 300 s (for Fab) or 900 s (for IgG), regeneration with 10 mM glycine pH 2 for 60 s between each cycle. Association rates (kₒₙ) and dissociation rates (koff) were calculated using a simple one-to-one Langmuir binding model (BIACORE® T100 Evaluation Software version 1.1.1) by simultaneously fitting the association and dissociation sensorgrams (model parameters were local Rmax and RI=0). The equilibrium dissociation constant (KD) was calculated as the ratio koff/kₒₙ.

[4] = target: T4, Cynomolgus Fibroblast Activation Protein (FAP) ectodomain with C-terminal poly-lysine and 6xHis-tag (cynomolgus monkey, UniProt Q12884 27-760 (human entry)); experiment: as above
T4 construct: also called cyno FAP; Cynomolgus FAP extracellular domain
Experimental: as §1, §2

[5] = target: T5, murine Fibroblast Activation Protein (FAP) ectodomain with C-terminal poly-lysine and 6xHis-tag (mouse, UniProt P97321 27-761); experiment: as above
T5 construct: also called mu FAP; murine FAP
Experimental: as §1, §2

[6] = target: T6, human Fibroblast Activation Protein (FAP) on cells or in tissue (human, UniProt Q12884 1-760); experiment: FACS on HEK293 cells stably transfected with human FAP
T6 construct: whole, on cells; Expressed on stably transfected HEK293 cells, on the human fibroblast cell line GM05389, on human tumor cell lines and in human tumor tissue sections; also called human FAP; hFAP

[7] = target: T7, DPPIV (CD26) on stably transfected HEK293 cells (UniProt P27487 1-766); experiment: FACS on HEK293 cells stably expressing DPPIV, PE goat anti-human IgG Fc gamma detection
T7 construct: whole, on cells; also called dipeptidyl peptidase IV

[8] = target: T3, human Fibroblast Activation Protein …; experiment: SPR (Biacore T100), His-tagged FAP captured by anti-His antibody, Fab as analyte
Experimental: as §1, §2

[9] = target: T4, Cynomolgus Fibroblast Activation …; experiment: as above
Experimental: as §1, §2

[10] = target: T5, murine Fibroblast Activation Protein …; experiment: as above
Experimental: as §1, §2

B1: 4G8 human IgG1 antibody (antibody, V domains shown)
VH: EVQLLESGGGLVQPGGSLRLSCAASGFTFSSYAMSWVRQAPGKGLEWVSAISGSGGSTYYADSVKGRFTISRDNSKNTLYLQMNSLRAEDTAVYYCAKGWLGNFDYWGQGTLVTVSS
VL: EIVLTQSPGTLSLSPGERATLSCRASQSVSRSYLAWYQQKPGQAPRLLIIGASTRATGIPDRFSGSGSGTDFTLTISRLEPEDFAVYYCQQGQVIPPTFGQGTKVEIK
notes: Wild-type and glycoengineered versions were used in the ADCC assay; also called IgG 4G8; 4G8 IgG
EC50 [1]: 1.7 nM | binding result [2]: no binding (tested: 30 µg/ml) | Kd [3]: 0.051 nM | Kd [4]: 0.059 nM | Kd [5]: 0.001 nM | EC50 [6]: 5 nM | binding result [7]: no binding (tested: 30 µg/ml)

B2: 3F2 human IgG1 antibody (antibody, V domains shown)
VH: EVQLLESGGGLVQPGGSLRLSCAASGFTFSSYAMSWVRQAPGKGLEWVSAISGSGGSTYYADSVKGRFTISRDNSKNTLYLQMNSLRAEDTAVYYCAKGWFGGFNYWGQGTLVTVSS
VL: B1 VL with S30T, R31S, I50N, G51V, A52G, T54R, Q93I, V94M, I95L
notes: Wild-type and glycoengineered versions were used in the ADCC assay; also called IgG 3F2; 3F2 IgG
EC50 [1]: 1 nM | binding result [2]: no binding (tested: 30 µg/ml) | Kd [3]: 0.039 nM | Kd [4]: 0.042 nM | Kd [5]: 0.029 nM | EC50 [6]: 4.8 nM | binding result [7]: no binding (tested: 30 µg/ml)

B3: 3F2 Fab fragment (Fab, V domains shown)
VH: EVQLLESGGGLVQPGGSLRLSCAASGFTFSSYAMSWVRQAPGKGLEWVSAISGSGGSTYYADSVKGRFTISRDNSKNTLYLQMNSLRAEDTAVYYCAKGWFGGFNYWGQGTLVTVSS
VL: B1 VL with S30T, R31S, I50N, G51V, A52G, T54R, Q93I, V94M, I95L
notes: also called Fab fragment 3F2; clone 3F2
Kd [8]: 13 nM | Kd [9]: 11 nM | Kd [10]: 14 nM

More lines, now with the values ahead:

Kd [8]: 74 nM | Kd [9]: 56 nM | Kd [10]: ≤ 7 nM
B4: 4G8 Fab fragment (Fab, V domains shown)
VH: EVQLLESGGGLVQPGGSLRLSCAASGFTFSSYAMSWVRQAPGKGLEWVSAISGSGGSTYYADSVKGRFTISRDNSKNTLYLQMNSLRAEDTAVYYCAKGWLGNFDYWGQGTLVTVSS
VL: B1 VL
notes: also called Fab fragment 4G8; clone 4G8

EC50 [1]: 1.6 nM | binding result [2]: no binding (tested: 30 µg/ml) | EC50 [6]: 5.5 nM | binding result [7]: no binding (tested: 30 µg/ml)
B5: 4B3 human IgG1 antibody (antibody, V domains shown)
VH: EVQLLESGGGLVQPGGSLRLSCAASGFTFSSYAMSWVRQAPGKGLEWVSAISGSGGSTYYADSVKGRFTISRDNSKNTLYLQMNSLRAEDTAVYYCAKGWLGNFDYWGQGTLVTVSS
VL: B1 VL with R31S, S32N, I50Y, S53Y, T54I
notes: Human IgG1 format; also called 4B3 IgG
